Assay results reported in US20260248946A1 (TUOJIE BIOTECH SHANGHAI, published 2026).

T1: human CD79B on the surface of cells (DoHH2 / DOHH-2, WSU-DLCL2) (human, UniProt P40259 29-229)
T1 sequence (looked up): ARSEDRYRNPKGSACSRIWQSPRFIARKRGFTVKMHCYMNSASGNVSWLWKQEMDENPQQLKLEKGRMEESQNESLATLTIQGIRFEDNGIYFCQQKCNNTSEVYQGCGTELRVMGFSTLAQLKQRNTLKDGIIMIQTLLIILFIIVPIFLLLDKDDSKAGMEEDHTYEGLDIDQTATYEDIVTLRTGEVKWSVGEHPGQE

T2: human CD79B antigen (coated in the ELISA of the anti-human CD79B mouse antibodies) (human, UniProt P40259 29-159)
T2 construct: extracellular domain; The ELISA protocols only say 'antigen'
T2 sequence (looked up): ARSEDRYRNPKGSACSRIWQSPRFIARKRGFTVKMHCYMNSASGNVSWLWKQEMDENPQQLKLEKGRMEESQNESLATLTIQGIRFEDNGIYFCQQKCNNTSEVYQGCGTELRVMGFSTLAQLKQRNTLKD

T3: fusion protein of human CD79B extracellular domain (ECD) and His tag (human, UniProt P40259 29-159)
T3 construct: also called human CD79B ECD-His; Human CD79B-His protein
T3 sequence: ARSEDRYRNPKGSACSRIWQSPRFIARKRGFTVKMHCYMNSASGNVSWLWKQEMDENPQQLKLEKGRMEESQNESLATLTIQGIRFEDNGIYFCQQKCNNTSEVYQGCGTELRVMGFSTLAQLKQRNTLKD

B1: ADC-8 (antibody, human IgG1, kappa, V domains shown)
VH: EVQLVESGGGLVQPGGSLRLSCAASGYTFSSYWIEWVRQAPGKGLEWIGEILPGGGDTNYNEIFKGRATFSADTSKNTAYLQMNSLRAEDTAVYYCTRRVPIRLDYWGQGTLVTVSS
VL: DIQLTQSPSSLSASVGDRVTITCKASQSVDYEGDSFLNWYQQKPGKAPKLLIYAASNLESGVPSRFSGSGSGTDFTLTISSLQPEDFATYYCQQSNEDPLTFGQGTKVEIKR
modifications: MC-VC-PAB-MMAE coupled to cysteines after TCEP reduction; positions not given; MC-VC-PAB-MMAE coupled to cysteines after TCEP reduction; positions not given; mean n=3.59 per antibody
B2: SN8 (antibody, human IgG1, kappa, V domains shown)
VH: EVQLVESGGGLVQPGGSLRLSCAASGYTFSSYWIEWVRQAPGKGLEWIGEILPGGGDTNYNEIFKGRATFSADTSKNTAYLQMNSLRAEDTAVYYCTRRVPIRLDYWGQGTLVTVSS
VL: DIQLTQSPSSLSASVGDRVTITCKASQSVDYEGDSFLNWYQQKPGKAPKLLIYAASNLESGVPSRFSGSGSGTDFTLTISSLQPEDFATYYCQQSNEDPLTFGQGTKVEIKR
notes: also called positive control antibody; the antibody in Polivy (polatuzumab vedotin)
B3: mAb015 (antibody, V domains shown)
VH: QVQLQQSGAELARPGASVKLSCKASGSSFTSYGINWVKQRTGQGLEWIGEIFPRSGNTYYNEKFEGKATLTADKSSSTAYMELRSLTSEDSAVYFCAKGDLGDFDYWGQGTTLTVSS
VL: DFLMTQTPLSLPVRLGDQASISCRSSQSIVHSDGNTYFEWYLQKPGQSPKLLIYKVSNRFSGVPDRFSGSGSGTDFTLKISRVEAEDLGVYYCFQGSHVPWTFGGGTKLEIK
notes: Mouse monoclonal antibody from hybridoma; also called 83B2G2
B4: mAb017 (antibody, V domains shown)
VH: QVQLQQSGAELARPGASVKLSCKASGYTFTTYGINWVKQRTGQGLEWIGEIYPRSGNIYYNEKFKGKATLTADKSSSTAYMELRSLTSEDSAVYFCARGSDYDGDFAYWGQGTLVTVSA
VL: DVLMTQTPLSLPVSLGDQASISCRSSQSIVHHDGNTYLEWYLQKPGQSPKLLIYKVSNRFSGVPDRFSGSGSGTDFTLKISRVEAEDLGVYYCFQGSHVPWTFGGGTQLEIK
notes: Mouse monoclonal antibody from hybridoma; also called 86F11F6
B5: mAb016 (antibody, V domains shown)
VH: QVQLQQSGAELARPGASVKLSCKASGYIFTNYGIIWVKQRTGQGLEWIGDIFPGSGNTYYNENFKGKATLTADKSSSTAYMELRSLTSEDSAVYFCSRGELGDFDYWGQGTTLTVSS
VL: VVLMTQTPLSLPVSLGDQASISCRSSQNIVHSDGTTYLEWYLQKPGQSPKLLIYKVSNRFSGVPDRFSGSGSGTDFTLKISRVEAEDLGIYYCFQGSHVPWTFGGGTKLEIK
B6: ADC-7 (antibody, human IgG1, kappa, V domains shown)
VH: EVQLVQSGAEVKKPGSSVKVSCKASGSSFSSYGINWVKQAPGQGLEWIGEIFPRSGNTYYNEKFEGRATLTADKSTSTAYMELRSLRSEDTAVYYCAKGDLGDFDYWGQGTTVTVSS
VL: DFVMTQTPLSLPVTPGEPASISCRSSQSIVHSDGNTYFEWYLQKPGQSPKLLIYKVSNRFSGVPDRFSGSGSGTDFTLKISRVEAEDVGVYYCFQGSHVPWTFGGGTKVEIKR
modifications: compound D coupled to cysteines after TCEP reduction; positions not given; compound D (exatecan-type linker-drug, Topo I inhibitor) coupled to cysteines after TCEP reduction; positions not given; mean n=5.84 per antibody
B7: ADC-4 (antibody, human IgG1, kappa, V domains shown)
VH: EVQLVQSGAEVKKPGSSVKVSCKASGSSFSSYGINWVKQAPGQGLEWIGEIFPRSGNTYYNEKFEGRATLTADKSTSTAYMELRSLRSEDTAVYYCAKGDLGDFDYWGQGTTVTVSS
VL: DFVMTQTPLSLPVTPGEPASISCRSSQSIVHSDGNTYFEWYLQKPGQSPKLLIYKVSNRFSGVPDRFSGSGSGTDFTLKISRVEAEDVGVYYCFQGSHVPWTFGGGTKVEIKR
modifications: compound C coupled to cysteines after TCEP reduction; positions not given; compound C (linker-drug) coupled to cysteines after TCEP reduction; positions not given; mean n=4.52 per antibody
notes: Antibody-drug conjugate of hAb015-10; DAR 4.52; also called hAb015-10-cys-C
B8: ADC-1 (antibody, human IgG1, kappa, V domains shown)
VH: EVQLVQSGAEVKKPGSSVKVSCKASGSSFSSYGINWVKQAPGQGLEWIGEIFPRSGNTYYNEKFEGRATLTADKSTSTAYMELRSLRSEDTAVYYCAKGDLGDFDYWGQGTTVTVSS
VL: DFVMTQTPLSLPVTPGEPASISCRSSQSIVHSDGNTYFEWYLQKPGQSPKLLIYKVSNRFSGVPDRFSGSGSGTDFTLKISRVEAEDVGVYYCFQGSHVPWTFGGGTKVEIKR
modifications: compound B coupled to cysteines after TCEP reduction; positions not given; compound B (eribulin-derivative linker-drug) coupled to cysteines after TCEP reduction; positions not given; mean n=3.06 per antibody
notes: Antibody-drug conjugate of hAb015-10; DAR 3.06; also called hAb015-10-cys-B
B9: hAb017-10 (antibody, human IgG1, kappa, V domains shown)
VH: EVQLVQSGAEVKKPGASVKVSCKASGYTFTTYGINWVKQAPGQGLEWIGEIYPRSGNIYYNEKFKGKATLTADKSTSTAYMELRSLRSDDTAVYYCARGSDYDGDFAYWGQGTLVTVSS
VL: DVVMTQTPLSLPVTPGEPASISCRSSQSIVHHDGNTYLEWYLQKPGQSPQLLIYKVSNRFSGVPDRFSGSGSGTDFTLKISRVEAEDVGVYYCFQGSHVPWTFGGGTKVEIKR
notes: Humanized antibody; also called hAb017-10 humanized antibody
B10: ADC-3 (antibody, human IgG1, kappa, V domains shown)
VH: EVQLVQSGAEVKKPGSSVKVSCKASGSSFSSYGINWVKQAPGQGLEWIGEIFPRSGNTYYNEKFEGRATLTADKSTSTAYMELRSLRSEDTAVYYCAKGDLGDFDYWGQGTTVTVSS
VL: DFVMTQTPLSLPVTPGEPASISCRSSQSIVHSDGNTYFEWYLQKPGQSPKLLIYKVSNRFSGVPDRFSGSGSGTDFTLKISRVEAEDVGVYYCFQGSHVPWTFGGGTKVEIKR
modifications: MC-vc-PAB-MMAE coupled to cysteines after TCEP reduction; positions not given; MC-vc-PAB-MMAE coupled to cysteines after TCEP reduction; positions not given; mean n=3.09 per antibody
notes: Antibody-drug conjugate of hAb015-10; DAR 3.09; also called hAb015-10-cys-MC-vc-PAB-MMAE
B11: ADC-2 (antibody, human IgG1, kappa, V domains shown)
VH: EVQLVQSGAEVKKPGSSVKVSCKASGSSFSSYGINWVKQAPGQGLEWIGEIFPRSGNTYYNEKFEGRATLTADKSTSTAYMELRSLRSEDTAVYYCAKGDLGDFDYWGQGTTVTVSS
VL: DFVMTQTPLSLPVTPGEPASISCRSSQSIVHSDGNTYFEWYLQKPGQSPKLLIYKVSNRFSGVPDRFSGSGSGTDFTLKISRVEAEDVGVYYCFQGSHVPWTFGGGTKVEIKR
modifications: compound A coupled to cysteines after TCEP reduction; positions not given; compound A (Malei-PEG2-vc-PAB-MMAE) coupled to cysteines after TCEP reduction; positions not given; mean n=3.68 per antibody
notes: Antibody-drug conjugate of hAb015-10; DAR 3.68; also called hAb015-10-cys-Malei-PEG2-vc-PAB-MMAE
B12: ADC-5 (antibody, human IgG1, kappa, V domains shown)
VH: EVQLVQSGAEVKKPGSSVKVSCKASGSSFSSYGINWVKQAPGQGLEWIGEIFPRSGNTYYNEKFEGRATLTADKSTSTAYMELRSLRSEDTAVYYCAKGDLGDFDYWGQGTTVTVSS
VL: DFVMTQTPLSLPVTPGEPASISCRSSQSIVHSDGNTYFEWYLQKPGQSPKLLIYKVSNRFSGVPDRFSGSGSGTDFTLKISRVEAEDVGVYYCFQGSHVPWTFGGGTKVEIKR
modifications: compound D coupled to cysteines after TCEP reduction; positions not given; compound D (exatecan-type linker-drug, Topo I inhibitor) coupled to cysteines after TCEP reduction; positions not given; mean n=1.81 per antibody
notes: Antibody-drug conjugate of hAb015-10; also called HAB015-10-cys-D, with a DAR value of about 2
B13: ADC-6 (antibody, human IgG1, kappa, V domains shown)
VH: EVQLVQSGAEVKKPGSSVKVSCKASGSSFSSYGINWVKQAPGQGLEWIGEIFPRSGNTYYNEKFEGRATLTADKSTSTAYMELRSLRSEDTAVYYCAKGDLGDFDYWGQGTTVTVSS
VL: DFVMTQTPLSLPVTPGEPASISCRSSQSIVHSDGNTYFEWYLQKPGQSPKLLIYKVSNRFSGVPDRFSGSGSGTDFTLKISRVEAEDVGVYYCFQGSHVPWTFGGGTKVEIKR
modifications: compound D coupled to cysteines after TCEP reduction; positions not given; compound D (exatecan-type linker-drug, Topo I inhibitor) coupled to cysteines after TCEP reduction; positions not given; mean n=3.46 per antibody

Key:
[1] = biological target: T1, human CD79B on the surface of cells …; experiment: cell-based or functional assay
[2] = biological target: T1, human CD79B on the surface of cells …; experiment: cell-based or functional assay; remark: listed apart in the source
[3] = biological target: T1, human CD79B on the surface of cells …; experiment: FACS on DoHH2 cells
Procedure: 3) Assay on anti-human CD79B mouse monoclonal antibodies by FACS The cell suspension of DoHH2 cells was centrifuged, resuspended in PBS containing 0.1% BSA, and counted. 100 μL of antibody diluted in a 1:10 ratio from 100 nM was added, and the cells were incubated at room temperature for 1 h and washed three times. Then Anti-Mouse IgG (Fc specific)-FITC secondary antibody was added, and the cells were incubated at room temperature for 30 min away from the light, washed three times, gently resuspended in PBS containing 0.1% BSA, and loaded on the machine for assay.

[4] = biological target: T2, human CD79B antigen (coated in the …); experiment: ELISA on coated human CD79B antigen
Procedure: 2) Assay on anti-human CD79B mouse monoclonal antibodies by ELISA A 96-well plate was coated with 1 μg/mL antigen at 50 μL/well and incubated in a refrigerator at 4° C. overnight. The next day, the coated antigen plate was washed once (washing solution: 1× PBST). After washing, the plate was blocked with 1% BSA blocking solution prepared in 1× PBST at 37° C. for 1 h. After washing the plate 3 times with 1× PBST, 50 μL of antibody diluted in a 1:10 ratio from 100 nM was added, and the plate was incubated in an incubator at 37° C. for 1 h. After washing the plate 3 times with 1× PBST, 100 μL of goat anti-mouse secondary antibody diluted in a 1:5000 ratio was added, and the plate was incubated in an incubator at 37° C. for 0.5 h. After washing the plate, TMB color development solutions A and B were mixed in a 1:1 ratio for color development. 15 min later, the color development reaction was stopped with 1 N hydrochloric acid. […] value was read at 450 nm on a Spectra Max M5 microplate reader.

[5] = biological target: T3, fusion protein of human CD79B …; experiment: ELISA on Human CD79B-His protein
[6] = biological target: T1, human CD79B on the surface of cells …; experiment: FACS on DoHH2 cells; remark: listed apart in the source
[7] = biological target: T3, fusion protein of human CD79B …; experiment: SPR, Human CD79B-His protein

| Binder | Endocytosis rate (4 h), DoHH2 cells [1] | IC50 of in vitro proliferation, DoHH2 cells (MTT, 72 h) [2] | IC50 of in vitro proliferation, WSU-DLCL2 cells (MTT, 72 h) [2] | EC50 (read off the curve) [3] | other results |
| --- | --- | --- | --- | --- | --- |
| B1 | 76% | 0.0806 µg/mL | 0.117 µg/mL | – | – |
| B2 | – | – | – | ~0.09 µg/mL | – |
| B3 | – | – | – | ~0.03 µg/mL | EC50 (read off the curve) [4]: 0.1 to 0.2 nM |
| B4 | – | – | – | ~0.02 µg/mL | EC50 (read off the curve) [4]: 0.1 to 0.2 nM |
| B5 | – | – | – | ~0.02 µg/mL | EC50 (read off the curve) [4]: 0.1 to 0.2 nM |
| B6 | 68% | 0.002 µg/mL | 0.0534 µg/mL | – | – |
| B7 | 81% | – | – | – | – |
| B8 | 73% | – | – | – | – |
| B9 | – | – | – | – | EC50 [5]: 0.06 nM; EC50 [6]: 0.55 nM; Kd [7]: 4.3 nM |
| B10 | 70% | 0.0033 µg/mL | 0.0059 µg/mL | – | – |
| B11 | 66% | – | – | – | – |
| B12 | 76% | 0.0085 µg/mL | 0.0683 µg/mL | – | – |
| B13 | 75% | 0.0033 µg/mL | 0.0542 µg/mL | – | – |
